Assay type in all cases: biochemical, Acanthamoeba castellanii
Substrate in data set [1]: C[S+]([O-])CCC(N)C(=O)O
The data set can be described thus: coupled NADPH oxidation via TrxR-S and Trx-1, A340. Particulars: 610 nM MsrA, 1.9 µM Trx-1, Ac TrxR-S, 0.2 mM NADPH. The text has this: coupled NADPH oxidation via TrxR-S and Trx-1, A340 on MsrA

Substrate in data set [2]: NC(=O)C1=CN([C@@H]2O[C@H](COP(=O)(O)OP(=O)(O)OC[C@H]3O[C@@H](n4cnc5c(N)ncnc54)[C@H](OP(=O)(O)O)[C@@H]3O)[C@@H](O)[C@H]2O)C=CC1
Description: GSH-dependent DTNB reduction, A412. Particulars: 1 mM GSSG, 11 nM GR, 100 mM Tris pH 7.5. The text has this: GSH-dependent DTNB reduction, A412 on Ac GR

Substrate in data set [3]: NC(=O)C1=CN([C@@H]2O[C@H](COP(=O)(O)OP(=O)(O)OC[C@H]3O[C@@H](n4cnc5c(N)ncnc54)[C@H](OP(=O)(O)O)[C@@H]3O)[C@@H](O)[C@H]2O)C=CC1
Description: Trx-1-dependent DTNB reduction, A412. Particulars: 10 µg/ml Trx-1, 1 mM DTNB, 1 µg/ml (31 nM) TrxR-S, 100 mM potassium phosphate pH 6.8, 21-23 °C. The text has this: Trx-1-dependent DTNB reduction, A412 on Ac TrxR-S

B1: MsrA (Acanthamoeba castellanii str. Neff) (protein)
chain: MTETATFGAGCFWGVEKFFRKEFGSALASTEVGYAGGDKSSPTYRQVCDGDTGHAEVVKLEFKKDAVDYASLVEFFFRIHDASTVDRQGNDVGTQYRSVIFYHTPEQKKVAEEVKDKVQKEHYPRTPIVTQIVPVGQYWSAEDYHQLYLEKNPSGYCNHRLRW
notes: full-length from cDNA, 163 aa, C-terminal 6xHis, pET-17b, E. coli BL21-AI, Ni-NTA
For B1, in data set [1], the Michaelis constant (Km) is 2.59 mM, the Vmax was determined as 500 nmol/min/mg, the kcat worked out at 9.3 min⁻¹ and the kcat/Km came to 59 M⁻¹ s⁻¹.

B2: Ac GR (Acanthamoeba castellanii str. Neff) (protein)
chain: MESAKSTYDFDLFVLGAGSGGVRASRISAKAGARVAIAEESRVGGTCVIRGCIPKKLLVYASHFSGDFEDSRNFGWSVDVKGFDWKKLIDNKDKEIDRLNGIYKNLLAGSGVKLIEGRATLVDAHTVKVGDATYTAENILVAVGSWPWVPTIPGIEHAITSNEALELQELPKHAIIVGAGYIACEFATIFSGCGAKVTQIFRKPYVLTGFDNDVQLAVMDEGKKQGINFMPSTQVTAIEKTDAGYVCQLDNGQTVTGDVVMYATGRVPNSANLGLENAGVKIDQQGAIVVDEWSRTSVPSIYAVGDITNRINLTPVALAEGHALADTLYNNLPRTADHTNVPSAVFTSPPVSCVGYTETQARQVYGEIDVYVSKFTPLRHTLSKRDEKTFMKLIVDRKTDRVVGAHMVGADAPEIIQGVAIAVKCGATKKQFDSTVGLHPSAAEEFVTMRTKRE
notes: full-length from cDNA, 454 aa, C-terminal 6xHis, expressed in Giardia lamblia WB C6, Ni-NTA; eluate also contained G. lamblia proteins
As to B2, the Km in data set [2] came out at 9 µM.

B3: Ac TrxR-S (Acanthamoeba castellanii str. Neff) (protein)
chain: MESKVHRMVIVGSGPAGHTAAIYAARANLEPVMYEGWMAGGVASGGQLTTTTDVENFPGFPEGVGGIDLTDNMRKQSERFGTVIIPKTITKADLSSRPFKLWVEGEEEGEPAAQAHSLIIATGATARRLAVPGEETFWQKGVSACAVCDGALPLFRNKPLAVVGGGDSACEEASWLSKFGSKVYLIHRRDELRASKIMAQRVLSNPKIEMVWNSAVEEIYGEKLVTGLKIKNVSTGDITDLPVSGLFWAIGHVPNTQFLNGQVETDAEGYIKTTPGSTVTSVEGVFAAGDVQDKRYRQAITAAGTGCMAALDAEHWLSAHL
notes: full-length from cDNA, 321 aa, C-terminal 6xHis, pET-17b, E. coli BL21-AI, Ni-NTA
Take B3: in data set [3], the Km is recorded as 4 µM, the Vmax is 2.96 µmol/min/mg and the kcat stood at 1.7 s⁻¹.

The record behind these values is publication PMC8038987, “An unusual thioredoxin system in the facultative parasite Acanthamoeba castellanii” (Cellular and Molecular Life Sciences: CMLS, 2021).
